Measured values published in the supplement of paper PMC11865577.

Assays:
Assay in all cases: pull-down binding Z-score (relative to library population); higher = stronger binding
[1] = test system: G-clamp-N3 (biotin conjugate); conditions: RNA library: Library-1 (pre-miRNA loops + repeats)
In short: (§1)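 To score binding, a beads-only signal was subtracted, barcoded replicate probes were averaged with the highest and lowest dropped, and the value was converted to a Z-score using the library mean and standard deviation. The input was 1 μg of Cy5- or Cy3-end-labelled RNA library, heat-folded in phosphate/NaCl/KCl buffer and mixed for 60 min at 25 °C with streptavidin beads carrying 100 pmol of biotin-conjugated small molecule. Bound RNA was eluted in hot SDS and hybridised to a DNA barcode microarray at 55.5 °C for 20 h.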

[2] = test system: TO-3-N3-2 (biotin conjugate); conditions: RNA library: Library-2
In short: as §1

[3] = test system: TO-N3-2 (biotin conjugate); conditions: RNA library: Library-2
In short: as §1

[4] = test system: TO-3-N3 (biotin conjugate); conditions: RNA library: Library-2
In short: as §1

TO-N3 (biotin conjugate) = conditions: RNA library: Library-2
In short: as §1

Row | Sequence | pull-down binding Z-score [1] | pull-down binding Z-score [2] | pull-down binding Z-score [3] | pull-down binding Z-score [4] | pull-down binding Z-score (TO-N3 (biotin conjugate))
1 | UAGUACAGGUGAGAUUGUACUG [hsa-mir-3920] | 0.5 | -0.323 | -0.564 | -0.707 | -0.888
2 | UAGUCUAAUAGGGACUA [hsa-mir-5681b] | 2.76 | -0.0587 | -1.21 | 0.02 | -0.292
3 | UAGUGGAAAGAGCACUG [hsa-mir-378b] | 1.15 | -0.158 | -0.274 | -0.39 | -0.347
4 | UAUAACUUGAAGAAUUCAAAUAGUCAUG [hsa-mir-3146] | -0.817 | -0.34 | -0.75 | -0.804 | -1.06
5 | UAUAGCUACAUCAGUUAUAACUAUAUCAGUUAAA [hsa-mir-5582] | -1.59 | 0.447 | 0.00457 | 1.67 | 1.57
6 | UAUAGGAAGGAAAUCUUAU [hsa-mir-6129] | -0.636 | -0.279 | -0.517 | -0.671 | -0.641
7 | UAUAGUGUGUUUGAUUUGCACUGUA [hsa-mir-4703] | 0.116 | -0.198 | -1.07 | -0.156 | -0.424
8 | UAUAUACUGAUGUAAUUUUCCUUGGAUUUAUAUGCAGUACUGAG [hsa-mir-6130] | -0.931 | 0.252 | -0.225 | 0.00904 | 0.102
9 | UAUAUGCUUUUUAAAUGGGGCACAGA [hsa-mir-5586] | 2 | 0.0323 | -0.177 | -0.275 | -0.26
10 | UAUAUUCGGUUUAUUGACAUGGAAUAUA [hsa-mir-381] | 2.02 | 0.106 | -0.284 | 0.718 | 0.706
11 | UAUCUAUAUAUAUGUGUA [hsa-mir-3171] | -0.471 | -0.0303 | 0.835 | -0.0511 | -0.0908
12 | UAUGAAGGUAAGCAUUUUUGUA [hsa-mir-3935] | -0.00708 | -0.263 | -0.419 | -0.615 | -0.614
13 | UAUGACCAGGCCAUAGUAAACAUCAUA [hsa-mir-4744] | 1.78 | 0.312 | -0.124 | -0.475 | -0.247
14 | UAUGCAAAGCUCUGACAGUGUUUCACUUGCUA [hsa-mir-7848] | 0.148 | -0.145 | -0.0647 | -0.489 | -0.256
15 | UAUGCCAUUAAAAGUAAUGGUAAA [hsa-mir-548aj-1] | -0.52 | -0.508 | -1.2 | -0.859 | -1.23
16 | UAUGCCUACAAAAUCCCUCCAGACUGGCAUA [hsa-mir-4666a] | -0.858 | -0.346 | -0.743 | -0.599 | -0.78
17 | UAUGUGAUUCUACUGCUCACUCAUAUA [hsa-mir-135a-1] | -0.239 | -0.191 | -0.519 | 0.402 | 0.212
18 | UAUUCGCUUUAUUGACUUCGAAUA [hsa-mir-369] | -0.422 | -0.144 | -0.736 | -0.0221 | -0.246
19 | UAUUCUCUAU [hsa-mir-2054] | -1.01 | -0.276 | -0.297 | 0.52 | 0.367

Row | Sequence | pull-down binding Z-score [1] | pull-down binding Z-score [2] | pull-down binding Z-score [3] | pull-down binding Z-score [4] | pull-down binding Z-score (TO-N3 (biotin conjugate))
20 | UAUUCUGAUGUCCAAGUGGAAA [hsa-mir-372] | -0.198 | -0.345 | -0.504 | -0.733 | -0.772
21 | UAUUGCAAAGAUUUUCAAUA [hsa-mir-3915] | -0.191 | -0.307 | -1.1 | -0.611 | -0.988
22 | UAUUGGGCCAAUUCCCCCAAUG [hsa-mir-4781] | -1.57 | -0.791 | -1.12 | -1.13 | -1.38
23 | UAUUGUGUUGAUCAACAAUA [hsa-mir-5590] | -0.46 | -0.465 | -0.668 | -0.858 | -0.668
24 | UAUUUCAAAAGACUAGAGGUAGGAAAUGAG [hsa-mir-3975] | 2.94 | 0.381 | -0.211 | -0.57 | -0.42
25 | UAUUUUGUUAUUCUGGUCACAGAAUGACCUAGUA [hsa-mir-630] | -1.22 | -0.134 | -1.11 | 0.141 | -0.308
26 | UCAAACAAGUUUCCAAAUUGUUUGA [hsa-mir-488] | -0.178 | -0.496 | -1.02 | 0.554 | 0.194
27 | UCACAAUUGCGCUACAGAACUGUUGA [hsa-mir-203b] | 0.254 | 0.314 | 0.308 | 0.859 | 1.12
28 | UCACAGGGCUCAGGGAAUGUGUCUGCACCUGUGA [hsa-mir-587] | 0.296 | 0.0576 | 0.206 | 0.431 | 0.469
29 | UCACAGUUGGUUUCUGACACGUGG [hsa-mir-4535] | 0.283 | -0.0393 | -0.0476 | 0.237 | 0.305
30 | UCACUGCUGCUGGCGCCCUGA [hsa-mir-943] | -0.764 | 0.0365 | 0.911 | 0.0735 | 0.432
31 | UCACUGUGAACAGUCUCAGUCAGUGA [hsa-mir-183] | -0.0454 | -0.331 | -0.631 | -0.81 | -0.919
32 | UCAGACACAUCAGAUCCCUUAUCUGUAAAAUGGGCAUGA [hsa-mir-640] | 0.152 | -0.013 | 0.521 | -0.19 | 0.00353
33 | UCAGAUAUUUAAGUUAACAGUAUUUGA [hsa-mir-580] | 0.0815 | -0.347 | -1.5 | -0.784 | -1.1
34 | UCAGCACCUGAACGCCAAGGCUGG [hsa-mir-3150a] | 0.168 | -0.591 | 0.123 | -0.481 | -0.348
35 | UCAGCCCCAUAUGUAUCUGAAGGCUGA [hsa-mir-5694] | -0.92 | -0.286 | 0.0924 | -0.404 | -0.337
36 | UCAGCUGUAAUACAUGGAUUGGCUGG [hsa-mir-30b] | 0.592 | -0.198 | -0.252 | -0.368 | -0.379
37 | UCAGCUGUGAGCUCAAGGUGGCUGG [hsa-mir-30c-1] | 1.32 | 0.093 | 0.98 | 0.424 | 0.804
